The source of these data is US20150166628A1.

The target of this assay is cellular IGF-1 receptors (UniProt P24062). The experiment in a line: cell-based or functional assay.
UniProt P24062, sequence (P24062 31-1370): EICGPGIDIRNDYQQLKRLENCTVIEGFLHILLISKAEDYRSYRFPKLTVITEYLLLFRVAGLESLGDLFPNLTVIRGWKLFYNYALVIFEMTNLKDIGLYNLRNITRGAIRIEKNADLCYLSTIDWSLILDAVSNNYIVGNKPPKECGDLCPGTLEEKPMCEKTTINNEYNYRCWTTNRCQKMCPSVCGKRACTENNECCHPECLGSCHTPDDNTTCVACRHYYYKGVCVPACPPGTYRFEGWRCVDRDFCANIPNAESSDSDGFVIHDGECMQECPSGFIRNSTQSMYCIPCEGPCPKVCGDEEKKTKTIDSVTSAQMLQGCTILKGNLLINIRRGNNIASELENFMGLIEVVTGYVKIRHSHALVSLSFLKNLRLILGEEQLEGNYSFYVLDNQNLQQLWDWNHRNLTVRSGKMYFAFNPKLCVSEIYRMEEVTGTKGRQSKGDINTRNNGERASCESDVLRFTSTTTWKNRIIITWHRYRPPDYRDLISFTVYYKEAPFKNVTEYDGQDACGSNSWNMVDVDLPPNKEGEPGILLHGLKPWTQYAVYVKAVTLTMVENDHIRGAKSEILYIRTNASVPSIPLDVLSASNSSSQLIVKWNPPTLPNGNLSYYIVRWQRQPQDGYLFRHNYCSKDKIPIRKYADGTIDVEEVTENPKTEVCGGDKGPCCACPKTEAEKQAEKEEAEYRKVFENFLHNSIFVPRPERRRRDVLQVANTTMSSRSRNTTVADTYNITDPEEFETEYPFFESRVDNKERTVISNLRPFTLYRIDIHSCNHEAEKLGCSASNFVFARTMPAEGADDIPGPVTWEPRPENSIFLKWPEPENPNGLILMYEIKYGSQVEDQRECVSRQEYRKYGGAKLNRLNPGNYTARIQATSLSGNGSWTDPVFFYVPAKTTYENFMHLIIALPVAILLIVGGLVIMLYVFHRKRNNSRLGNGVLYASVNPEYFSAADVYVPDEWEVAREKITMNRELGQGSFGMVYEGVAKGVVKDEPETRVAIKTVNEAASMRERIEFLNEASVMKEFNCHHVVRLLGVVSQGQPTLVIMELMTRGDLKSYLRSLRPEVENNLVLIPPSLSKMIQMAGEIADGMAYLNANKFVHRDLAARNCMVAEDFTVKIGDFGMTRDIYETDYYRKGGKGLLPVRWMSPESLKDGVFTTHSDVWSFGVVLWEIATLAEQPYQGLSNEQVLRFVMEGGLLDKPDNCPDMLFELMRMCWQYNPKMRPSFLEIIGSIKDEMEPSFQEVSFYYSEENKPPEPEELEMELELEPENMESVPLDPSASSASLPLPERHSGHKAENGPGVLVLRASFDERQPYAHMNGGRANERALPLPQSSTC

Consider “HB-IGF-1 fusion protein (heparin-binding domain of human HB-EGF with a single cysteine-to-serine mutation fused to the amino-terminus of a mature IGF-1 protein) (from UniProt P05019 49-118)”, for which the sulfate incorporation into meniscal cartilage, normalized to saline injection, four days after injection (fold of saline) is 1.82 and the sulfate incorporation into meniscal cartilage, normalized to saline injection, two days after injection (fold of saline) is 2.1.
